Test results published in patent US20210139568A1 (AXON NEUROSCIENCE, published 2021).
Where no end group is shown, it is not given here. [ ]: non-standard residue; d: D form. pT = C[C@@H](OP(=O)(O)O)[C@H](N)C(=O)O

Assays:
[1] = target: T1, monoclonal antibody DC2E7; test: competition ELISA, peptide pre-incubated with DC2E7
T1 construct: also called DC217 (apparent misprint)
Procedure: In order to examine the effect of residues in the region of DC2E7 epitope on antibody binding, synthetic peptides of different lengths carrying different phospho-sites were analyzed in competitive ELISA. […] Each synthetized peptide contained phospho-site(s) located around the residue Thr217, except of unphosphorylated peptide tau 201-229 (used as negative control).
ELISA plates (Nunc Medisorp, Thermo Scientific, Denmark) were coated overnight at 37° C. with 50 μl/well of PHF-tau, diluted 200× in PBS. The coated plates were washed 5 times with PBS/Tween 20 (0.05% v/v), and blocked with PBS/Tween 20 for 1 h at 25° C. Each of the peptides was separately dissolved in PBS at a final concentration of 1 mM. Serial dilutions (2.5×) of peptides in PBS/Tween 20 were prepared in polypropylene microtiter plates with conical well bottom (Greiner) within the concentration range of 200 μM; 80 μM; 32 μM; 12.8 μM; 5.12 μM; 2.048 μM; 0.8192 μM; 0.32768 μM). The monoclonal antibody DC2E7 was diluted to a concentration of 0.6 μg/ml in PBS and 60 μl of this diluted antibody was added into each well to serial dilution of peptides resulting in 120 μl/well of mixture. The antibody/peptide mixtures were incubated for 1 hr at 25° C. on a rotating platform set to 230 rpm.

[2] = target: T2, monoclonal antibody DC2E2; test: competition ELISA, peptide pre-incubated with DC2E2, plates coated with tau 1-242
T2 construct: Used as hybridoma supernatant or Protein G purified; biotinylated as detector in the digital ELISA
T2 sequence (VL, as listed by the source): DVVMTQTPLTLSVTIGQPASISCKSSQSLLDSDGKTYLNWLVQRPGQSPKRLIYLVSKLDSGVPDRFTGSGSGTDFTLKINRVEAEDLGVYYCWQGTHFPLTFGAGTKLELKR
Procedure: (§1) The plates were washed 4 times with PBS/Tween 20 (0.1% v/v), and blocked with PBS/Tween 20 for 2 h at 25° C. Peptides were separately dissolved in PBS at a final concentration of 5 mM. Serial dilutions (2,5-fold) of the peptides in PBS/Tween 20 were prepared in polypropylene plates with conical well bottom (Greiner, #651201) (concentration range 200 μM, 32 μM, 12.8 μM, 5.1 μM, 2 μM, 0.8 μM, and 0.3 μM). 60 μl of each dilution were added per well. Purified DC2E2 was diluted to a concentration of 0.6 μg/ml in PBS/Tween 20 and 60 μl of this diluted antibody was mixed with each serial dilution of peptides resulting in 120 μl mixtures with […] of antibody/60μl containing each respective test peptide at a concentration of 200 μM, 32 μM, 12.8 μM, 5.1 μM, 2 μM, 0.8 μM, and 0.3 μM. The antibody/peptide mixtures were incubated for 1 hr at 25° C. on a rotating platform set to 250 rpm. […] The plates were washed 4× times with PBS/Tween 20 and incubated for 1 hr at 25° C. on a rotating platform (set to 250 rpm) with 50 μl of Polyclonal Goat Anti-Mouse Immunoglobulins/HRP (Dako, #P0447) diluted 1:1000 in PBS/Tween 20. The plates were washed 4× times with PBS/Tween and then incubated with 50 μl/well of TMB one solution (Kem-En-Tec Diagnostics) as a peroxidase substrate. The reaction was stopped by adding 50 μl of 2 M H₂SO₄ (Merck). Absorbance was measured at 450 nm using a Powerwave HT (Bio-Tek).

[3] = target: unphosphorylated tau protein (UniProt P10636-8 1-441, limits assumed); test: ELISA
unphosphorylated tau protein, sequence (P10636 other isoform, or with tags, fused parts or gaps limits assumed): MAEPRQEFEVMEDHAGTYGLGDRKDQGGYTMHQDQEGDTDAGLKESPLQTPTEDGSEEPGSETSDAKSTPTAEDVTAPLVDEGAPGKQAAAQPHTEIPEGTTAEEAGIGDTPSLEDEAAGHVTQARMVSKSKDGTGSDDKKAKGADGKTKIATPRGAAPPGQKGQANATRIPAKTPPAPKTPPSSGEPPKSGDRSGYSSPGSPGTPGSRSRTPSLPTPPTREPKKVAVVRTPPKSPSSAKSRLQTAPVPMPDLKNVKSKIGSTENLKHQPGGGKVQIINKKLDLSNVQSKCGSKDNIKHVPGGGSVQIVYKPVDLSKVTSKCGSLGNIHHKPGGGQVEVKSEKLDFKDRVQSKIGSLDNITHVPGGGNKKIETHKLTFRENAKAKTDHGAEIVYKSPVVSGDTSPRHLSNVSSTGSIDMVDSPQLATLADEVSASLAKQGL

[4] = target: T2, monoclonal antibody DC2E2; test: competition ELISA, peptide 0.3-200 µM pre-incubated with DC2E2, plates coated with tau 1-242
Procedure: as §1

T1 sequence (VL, as listed by the source): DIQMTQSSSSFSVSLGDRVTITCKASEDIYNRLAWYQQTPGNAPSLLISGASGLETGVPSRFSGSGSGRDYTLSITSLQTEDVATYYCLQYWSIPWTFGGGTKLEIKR

Binder | binding result [1] | binding result [2] | also measured
SR[pT]PSLP[pT]PPT [synthetic phosphopeptide tau 210-220/pT212/pT217] | no binding (tested: peptide up to 200 µM) |  | 
SR[pT]PSLP[pT]P [synthetic phosphopeptide tau 210-218/pT212/pT217] | no binding (tested: peptide up to 200 µM) |  | 
IPAKTPPAPKTPPSSGEPPKSGDRSGYSSP [synthetic peptide tau 171-200] |  | no binding (tested: peptide up to 200 µM) | 
TPPSSGEPPKSGDRSGYSSPGSPGTPGSRS [synthetic peptide tau 181-210] |  | no binding (tested: peptide up to 200 µM) | 
KAKGADGKTKIATPRGAAPPGQKGQANATR [synthetic peptide tau 141-170] |  | no binding (tested: peptide up to 200 µM) | 
antibody DC807 (antibody, V domains shown, Mouse monoclonal antibody) VH: EVKLVESGGGLVKPGGSLKLSCAASGFTFSNYAMSWVRQNPEKRLEWVASISSGGTIYSPDSVKGRFTISRDNGRNILYLQMSSLRSEDTAMYSCARVNYDYGYAMDYWGQGTSVTVS VL: DAVMTQTPLSLPVSLGDQASISCRSSQSLENSNGNTYLNWYLQKPGQSPQLLIYRVSNRFSGVLDRFSGSGSGTDFTLKISRVEAEDLGVYFCLQVTHVPWTFGGGTKLEIKR |  |  | binding result [3]: no binding
GQKGQANATRIPAKTPPAPKTPPSSGEPPK [synthetic peptide tau 161-190] |  |  | binding result [4]: binds
SR[pT]PSLP[pT]PP [synthetic phosphopeptide tau 210-219/pT212/pT217] | no binding (tested: peptide up to 200 µM) |  | 
antibody DC149 (antibody, V domains shown, Mouse monoclonal antibody) VH: DVQLVESGGGLVQPGGSRKLSCAASGFTLSSFGMHWVRQAPEKGLEWVAYISSGSSTIYYADTVKGRFTISRDNPKNILFLQMTSLRSEDTAIYYCSRRLDYWGQGTSVTVS VL: DIVITQDELSNPVTSGESVSISCRSSKSLLYKDGKTYLNWFLQRPGQSPQLLIYLMSTRASGVSDRFSGSGSGTDFTLEISRVKAEDVGVYYCQQFVEYPLTFGTGTKLELQR |  |  | binding result [3]: no binding
